The labels stand for the following.
B1: POU domain, class 4, transcription factor 2, residues 256 to 327; numbered along this chain, Q12837 (parent)
chain: RDLEAFAERFKQRRIKLGVTQADVGSALANLKIPGVGSLSQSTICRFESLTLSHNNMIALKPILQAWLEEAE

± gives the uncertainty stated by the source.

Variants of B1 are the subject of the series. Put plainly: abundance fitness (aPCA) (normalised: wild type 0, dead -1); higher = more abundant; growth selection in yeast, the domain comes from the species named. To be noted: Homo sapiens.
Take RDLEAFAERFKQRRIKLGVTQSDVGSALANLKIPGVGSLSQSTICRFESLTLSHNNMIALKPILQAWLEEAE [A22S]: the abundance fitness was -0.082 ± 0.051. With RDLEAFAERFKQRRIKLGVTQIDVGSALANLKIPGVGSLSQSTICRFESLTLSHNNMIALKPILQAWLEEAE [A22I], the abundance fitness is -0.393 ± 0.17.

Turning to RDLEAFAERFKQRRIKLGVTQLDVGSALANLKIPGVGSLSQSTICRFESLTLSHNNMIALKPILQAWLEEAE [A22L], the abundance fitness was -0.222 ± 0.054. The figure for RDLEAFAERFKQRRIKLGVTQKDVGSALANLKIPGVGSLSQSTICRFESLTLSHNNMIALKPILQAWLEEAE [A22K] is -0.078 ± 0.12; for RDLEAFAERFKQRRIKLGVTQHDVGSALANLKIPGVGSLSQSTICRFESLTLSHNNMIALKPILQAWLEEAE [A22H] it is -0.03 ± 0.15. For RDLEAFAERFKQRRIKLGVTQPDVGSALANLKIPGVGSLSQSTICRFESLTLSHNNMIALKPILQAWLEEAE [A22P], the abundance fitness was -0.463 ± 0.078.

For RDLEAFAERFKQRRIKLGVTQGDVGSALANLKIPGVGSLSQSTICRFESLTLSHNNMIALKPILQAWLEEAE [A22G], the abundance fitness was -0.038 ± 0.046. To RDLEAFAERFKQRRIKLGVTQNDVGSALANLKIPGVGSLSQSTICRFESLTLSHNNMIALKPILQAWLEEAE [A22N] belongs -0.219 ± 0.11. In the case of RDLEAFAERFKQRRIKLGVTQQDVGSALANLKIPGVGSLSQSTICRFESLTLSHNNMIALKPILQAWLEEAE [A22Q], the abundance fitness was -0.052 ± 0.08. To RDLEAFAERFKQRRIKLGVTQRDVGSALANLKIPGVGSLSQSTICRFESLTLSHNNMIALKPILQAWLEEAE [A22R] belongs -0.138 ± 0.049; to RDLEAFAERFKQRRIKLGVTQDDVGSALANLKIPGVGSLSQSTICRFESLTLSHNNMIALKPILQAWLEEAE [A22D], -0.262 ± 0.15; to RDLEAFAERFKQRRIKLGVTQTDVGSALANLKIPGVGSLSQSTICRFESLTLSHNNMIALKPILQAWLEEAE [A22T], -0.347 ± 0.096. The figure for RDLEAFAERFKQRRIKLGVTQVDVGSALANLKIPGVGSLSQSTICRFESLTLSHNNMIALKPILQAWLEEAE [A22V] is -0.339 ± 0.08. The figure for RDLEAFAERFKQRRIKLGVTQFDVGSALANLKIPGVGSLSQSTICRFESLTLSHNNMIALKPILQAWLEEAE [A22F] is -0.031 ± 0.17. For RDLEAFAERFKQRRIKLGVTQWDVGSALANLKIPGVGSLSQSTICRFESLTLSHNNMIALKPILQAWLEEAE [A22W], the abundance fitness was -0.302 ± 0.077. Consider RDLEAFAERFKQRRIKLGVTQEDVGSALANLKIPGVGSLSQSTICRFESLTLSHNNMIALKPILQAWLEEAE [A22E], for which the abundance fitness was -0.066 ± 0.1. Turning to RDLEAFAERFKQRRIKLGVTPADVGSALANLKIPGVGSLSQSTICRFESLTLSHNNMIALKPILQAWLEEAE [Q21P], the abundance fitness is -0.175 ± 0.082. To RDLEAFAERFKQRRIKLGVTTADVGSALANLKIPGVGSLSQSTICRFESLTLSHNNMIALKPILQAWLEEAE [Q21T] belongs 0.011 ± 0.066; to RDLEAFAERFKQRRIKLGVTRADVGSALANLKIPGVGSLSQSTICRFESLTLSHNNMIALKPILQAWLEEAE [Q21R], -0.111 ± 0.043. As for RDLEAFAERFKQRRIKLGVTWADVGSALANLKIPGVGSLSQSTICRFESLTLSHNNMIALKPILQAWLEEAE [Q21W], the abundance fitness was -0.238 ± 0.059. To RDLEAFAERFKQRRIKLGVTKADVGSALANLKIPGVGSLSQSTICRFESLTLSHNNMIALKPILQAWLEEAE [Q21K] belongs -0.361 ± 0.19; to RDLEAFAERFKQRRIKLGVTLADVGSALANLKIPGVGSLSQSTICRFESLTLSHNNMIALKPILQAWLEEAE [Q21L], 0.002 ± 0.055; to RDLEAFAERFKQRRIKLGVTVADVGSALANLKIPGVGSLSQSTICRFESLTLSHNNMIALKPILQAWLEEAE [Q21V], 0.002 ± 0.07. As to RDLEAFAERFKQRRIKLGVTIADVGSALANLKIPGVGSLSQSTICRFESLTLSHNNMIALKPILQAWLEEAE [Q21I], the abundance fitness was 0.151 ± 0.3. Consider RDLEAFAERFKQRRIKLGVTHADVGSALANLKIPGVGSLSQSTICRFESLTLSHNNMIALKPILQAWLEEAE [Q21H], for which the abundance fitness was 0.184 ± 0.27.

As for RDLEAFAERFKQRRIKLGVTYADVGSALANLKIPGVGSLSQSTICRFESLTLSHNNMIALKPILQAWLEEAE [Q21Y], the abundance fitness is -0.194 ± 0.1.

In the case of RDLEAFAERFKQRRIKLGVTNADVGSALANLKIPGVGSLSQSTICRFESLTLSHNNMIALKPILQAWLEEAE [Q21N], the abundance fitness is -0.346 ± 0.39.

Turning to RDLEAFAERFKQRRIKLGVTMADVGSALANLKIPGVGSLSQSTICRFESLTLSHNNMIALKPILQAWLEEAE [Q21M], the abundance fitness was -0.39 ± 0.097. On to RDLEAFAERFKQRRIKLGVTQADVMSALANLKIPGVGSLSQSTICRFESLTLSHNNMIALKPILQAWLEEAE [G25M], for which the abundance fitness is -0.242 ± 0.21. To RDLEAFAERFKQRRIKLGVTQADVKSALANLKIPGVGSLSQSTICRFESLTLSHNNMIALKPILQAWLEEAE [G25K] belongs -0.264 ± 0.19; to RDLEAFAERFKQRRIKLGVTQADVLSALANLKIPGVGSLSQSTICRFESLTLSHNNMIALKPILQAWLEEAE [G25L], -0.031 ± 0.059; to RDLEAFAERFKQRRIKLGVTQADVFSALANLKIPGVGSLSQSTICRFESLTLSHNNMIALKPILQAWLEEAE [G25F], -0.494 ± 0.24. RDLEAFAERFKQRRIKLGVTQADVSSALANLKIPGVGSLSQSTICRFESLTLSHNNMIALKPILQAWLEEAE [G25S]: the abundance fitness is 0.166 ± 0.052.

Regarding RDLEAFAERFKQRRIKLGVTQADVCSALANLKIPGVGSLSQSTICRFESLTLSHNNMIALKPILQAWLEEAE [G25C], the abundance fitness came to 0.131 ± 0.14. In the case of RDLEAFAERFKQRRIKLGVTQADVISALANLKIPGVGSLSQSTICRFESLTLSHNNMIALKPILQAWLEEAE [G25I], the abundance fitness was -0.145 ± 0.18. Turning to RDLEAFAERFKQRRIKLGVTQADVESALANLKIPGVGSLSQSTICRFESLTLSHNNMIALKPILQAWLEEAE [G25E], the abundance fitness was determined as 0.127 ± 0.09. Take RDLEAFAERFKQRRIKLGVTQADVQSALANLKIPGVGSLSQSTICRFESLTLSHNNMIALKPILQAWLEEAE [G25Q]: the abundance fitness is -0.207 ± 0.11.

The values are drawn from the Human Domainome abundance scans (Beltran et al. 2025).
